Results: the supplement of paper PMC10266784

B1: library; numbered along this chain (parent)
chain: MAAAAAAAAEQQSSNGPVKKSMREKAVERRSVNKEHNSNFKAGYIPIDEDRLHKTGLRGRKGNLAICVIILLFILAVINLIITLVIWAVIRIGPNGCDSMEFHESGLLRFKQVSDMGVIHPLYKSTVGGRRNENLVITGNNQPIVFQQGTTKLSVENNKTSITSDIGMQFFDPRTQNILFSTDYETHEFHLPSGVKSLNVQKASTERITSNATSDLNIKVDGRAIVRGNEGVFIMGKTIEFHMGGNMELKAENSIILNGSVMVSTTRLPSSSSGDQLGSGDWVRYKLCMCADGTLFKVQVTSQNMGCQISDNPCGNTH

Variants of: B1
Experiment: SGCB cell-surface expression functional score (HA stain, bin4 vs bin1, normalised to synonymous) (log10 ratio); higher = more cell-surface SGCB (functional)
Description: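 Deep mutational scan of full-length human SGCB (YFP-SGCB-HA, NNN codon sublibraries A-F) delivered by lentivirus at low MOI into ADG-HEK293 cells stably expressing SGCA, SGCD and SGCG. YFP-positive cells were stained for surface HA on unpermeabilized cells and FACS-sorted into bins. The functional score is log10(frequency in high bin 4 / frequency in low bin 1), normalised per chunk so that synonymous variants have mean 0 and SD 0.5. Scores are the median over codons and over duplicate biological replicates; scores below -0.5 are called non-functional. Scale: negative means deleterious.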

SGCB cell-surface expression functional score (log10): each site, then its substitutions
I45: R -0.17 | N 0.15 | T 0.15 | Y 0.68 | M 0.43 | W 0.91 | S -0.08 | Q -0.67 | P 0.52 | V 0.48
L52: N 0.27 | D 0.39 | T 0.42 | I -0.3 | M 0.34 | F 0.04 | G 0.29 | P 0.32 | S -0.1 | E 0.55 | W -0.3 | V 0.17 | R 0.05 | A 0.22 | H 0.01 | Q 0.35 | C 0.09 | Y 0.25 | K -0.26
D48: P 0.18 | N 0.13 | L 0.18 | T -0.04 | F 0.37 | C 0.13 | Q -0.36 | Y 0.4 | A 0.6 | R -0.06 | K -0.09 | E -0.17 | V 0.07 | S 0.3 | I 0.19 | G -0.07 | M 0.77 | H 0.33 | W 0.22
E49: S 0.15 | K 0.42 | V 0.12 | L -0.04 | G 0.17 | I 0.51 | A 0.29 | N 0.48 | W 0.56 | D 0.02 | Q -0.19 | Y 0.09 | M 0.12 | R 0.35 | C 0.3 | F 0.11 | H -0.23 | T 0.27 | P 0.54
D50: L 0.12 | K 0.54 | H 0.24 | A 0.14 | I 0.07 | S 0.26 | W -0.47 | G 0.3 | Y 0 | F 0.27 | N 0.29 | P -0.16 | T 0.44 | M 0.2 | R 0.28 | C 0 | V -0.03 | Q 0.04 | E 0.3
I47: K 0.52 | N 0.73 | W -0.62 | Q 0.68 | T 0.58 | P 0.47 | F -0.49 | S 0.29 | V 0.12 | E 0.72 | G 0.36 | M 0.47 | H 0.63 | C 0.31 | D 0.59 | R -0.19 | Y 0.65 | A 0.17 | L -0.14
R51: T 0.01 | W 0.83 | S 0.04 | V 0.39 | I 0.36 | C -0.24 | P 0.04 | A 0.1 | K 0.63 | N 0.2 | Y 0.17 | H 0 | D -0.06 | Q 0.54 | E 0.04 | G -0.17 | L 0.47 | F 0.49 | M -0.39
H53: V 0.1 | C -0.27 | M 0.08 | P 0.19 | D -0.16 | A 0.38 | Y 0.27 | F -0.19 | K -0.51 | W -0.6 | Q 0.39 | N 0.08 | I 0.12 | S -0.22 | E -0.28 | R 0.29 | G 0.41 | L -0.05 | T 0.14
K54: F -0.13 | D -0.71 | A 0.23 | E 0.02 | C 0.29
P46: Y 0.03 | R -0.18 | V -0.23 | D -0.14 | M 0 | T 0.21 | N 0.18 | F 0.22 | H 0.31 | A -0.03 | I 0.27 | K -0.07 | G 0.65 | W -0.33 | L -0.2 | S 0.15 | Q 0.28 | E 0.1 | C 0.44
